Numbering of substitutions follows the chain as printed. *1 amine or outer side, *2 acyl side, *3 side chain or, on linkers, in order; H or OH if unused. Where no end group is shown, it is not given here. Side-chain parts run from the residue outwards. [ ]: non-standard residue; d: D form. The star is where a group is joined. Decanoyl(10-(4-HOOC-PhO)) = O=C(O)c1ccc(OCCCCCCCCCC(=O)*)cc1; αMePhe(2-F) = C[C@](N)(Cc1ccccc1F)C(=O)O; γGlu = O=C(O)[C@H](CCC(=O)[*:2])N[*:1]; C14 diacid = O=C(O)CCCCCCCCCCCCC(=O)*; αMeY = C[C@](N)(Cc1ccc(O)cc1)C(=O)O; αMeL = CC(C)C[C@](C)(N)C(=O)O; Orn = NCCC[C@H](N)C(=O)O; AEEA = NCCOCCOCC(=O)O; Aib = CC(C)(N)C(=O)O
T1: human GIP receptor (human, UniProt P48546 22-466)
T1 sequence (looked up): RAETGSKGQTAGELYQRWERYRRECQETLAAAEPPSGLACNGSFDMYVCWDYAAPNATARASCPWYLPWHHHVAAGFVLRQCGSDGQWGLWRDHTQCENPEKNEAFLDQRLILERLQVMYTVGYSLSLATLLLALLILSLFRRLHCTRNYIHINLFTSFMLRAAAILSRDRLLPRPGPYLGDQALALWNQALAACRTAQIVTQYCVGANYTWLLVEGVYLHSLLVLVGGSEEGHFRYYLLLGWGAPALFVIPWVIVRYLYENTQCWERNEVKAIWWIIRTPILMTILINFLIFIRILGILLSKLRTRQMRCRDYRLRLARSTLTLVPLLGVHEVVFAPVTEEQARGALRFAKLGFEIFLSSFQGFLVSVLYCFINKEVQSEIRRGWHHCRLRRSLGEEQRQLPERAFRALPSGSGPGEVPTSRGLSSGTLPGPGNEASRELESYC

T2: human GIP receptor (human) (UniProt P48546)
T2 sequence (looked up): T1 sequence (looked up)

B1: Example 407 (peptide)
peptide: Y[Aib]EGT[αMePhe(2-F)]TSDV[Aib]I[αMeL]LD[Orn]K([AEEA-AEEA-γGlu-C14 diacid])AQ[Aib]K([AEEA-AEEA-γGlu-C14 diacid])FI[dE][αMeY]LI[Orn]GGPSSGAPPPS-NH2
modifications: N-terminus assumed
SMILES: CC[C@H](C)[C@H](NC(=O)[C@H](CC(C)C)NC(=O)[C@](C)(Cc1ccc(O)cc1)NC(=O)[C@@H](CCC(=O)O)NC(=O)[C@@H](NC(=O)[C@H](Cc1ccccc1)NC(=O)[C@H](CCCCNC(=O)COCCOCCNC(=O)COCCOCCNC(=O)CC[C@H](NC(=O)CCCCCCCCCCCCC(=O)O)C(=O)O)NC(=O)C(C)(C)NC(=O)[C@H](CCC(N)=O)NC(=O)[C@H](C)NC(=O)[C@H](CCCCNC(=O)COCCOCCNC(=O)COCCOCCNC(=O)CC[C@H](NC(=O)CCCCCCCCCCCCC(=O)O)C(=O)O)NC(=O)[C@H](CCCN)NC(=O)[C@H](CC(=O)O)NC(=O)[C@H](CC(C)C)NC(=O)[C@](C)(CC(C)C)NC(=O)[C@@H](NC(=O)C(C)(C)NC(=O)[C@@H](NC(=O)[C@H](CC(=O)O)NC(=O)[C@H](CO)NC(=O)[C@@H](NC(=O)[C@](C)(Cc1ccccc1F)NC(=O)[C@@H](NC(=O)CNC(=O)[C@H](CCC(=O)O)NC(=O)C(C)(C)NC(=O)[C@@H](N)Cc1ccc(O)cc1)[C@@H](C)O)[C@@H](C)O)C(C)C)[C@@H](C)CC)[C@@H](C)CC)C(=O)N[C@@H](CCCN)C(=O)NCC(=O)NCC(=O)N1CCC[C@H]1C(=O)N[C@@H](CO)C(=O)N[C@@H](CO)C(=O)NCC(=O)N[C@@H](C)C(=O)N1CCC[C@H]1C(=O)N1CCC[C@H]1C(=O)N1CCC[C@H]1C(=O)N[C@@H](CO)C(N)=O
B2: Example 399 (peptide)
peptide: Y[Aib]EGT[αMePhe(2-F)]TSDV[Aib]I[αMeL]LD[Orn]K([AEEA-γGlu-C14 diacid])AQ[Aib]EFI[dE][αMeY]LIK([AEEA-γGlu-C14 diacid])GGPSSGAPPPS-NH2
modifications: N-terminus assumed
SMILES: CC[C@H](C)[C@H](NC(=O)[C@H](CC(C)C)NC(=O)[C@](C)(Cc1ccc(O)cc1)NC(=O)[C@@H](CCC(=O)O)NC(=O)[C@@H](NC(=O)[C@H](Cc1ccccc1)NC(=O)[C@H](CCC(=O)O)NC(=O)C(C)(C)NC(=O)[C@H](CCC(N)=O)NC(=O)[C@H](C)NC(=O)[C@H](CCCCNC(=O)COCCOCCNC(=O)CC[C@H](NC(=O)CCCCCCCCCCCCC(=O)O)C(=O)O)NC(=O)[C@H](CCCN)NC(=O)[C@H](CC(=O)O)NC(=O)[C@H](CC(C)C)NC(=O)[C@](C)(CC(C)C)NC(=O)[C@@H](NC(=O)C(C)(C)NC(=O)[C@@H](NC(=O)[C@H](CC(=O)O)NC(=O)[C@H](CO)NC(=O)[C@@H](NC(=O)[C@](C)(Cc1ccccc1F)NC(=O)[C@@H](NC(=O)CNC(=O)[C@H](CCC(=O)O)NC(=O)C(C)(C)NC(=O)[C@@H](N)Cc1ccc(O)cc1)[C@@H](C)O)[C@@H](C)O)C(C)C)[C@@H](C)CC)[C@@H](C)CC)C(=O)N[C@@H](CCCCNC(=O)COCCOCCNC(=O)CC[C@H](NC(=O)CCCCCCCCCCCCC(=O)O)C(=O)O)C(=O)NCC(=O)NCC(=O)N1CCC[C@H]1C(=O)N[C@@H](CO)C(=O)N[C@@H](CO)C(=O)NCC(=O)N[C@@H](C)C(=O)N1CCC[C@H]1C(=O)N1CCC[C@H]1C(=O)N1CCC[C@H]1C(=O)N[C@@H](CO)C(N)=O
B3: Example 393 (peptide)
peptide: YXEGTXTSDYXIXLDXKAQXKFIXXLIEGGPSSGAPPPS
modifications: Y-Aib-EGT-αMeF(2F)-TSDY-Aib-I-αMeL-LD-Orn-K((2-[2-(2-Amino-ethoxy)-ethoxy]-acetyl)2-(10-(4-carboxyphenoxy)decanoyl))AQ-Aib-K((2-[2-(2-Amino-ethoxy)-ethoxy]-acetyl)2-(10-(4-carboxyphenoxy)decanoyl))FI-(D-Glu)-αMeY-LIEGGPSSGAPPPS-NH2
B4: Example 404 (peptide)
peptide: B3 peptide with Y10X
modifications: Y-Aib-EGT-αMeF(2F)-TSD-4Pal-Aib-I-αMeL-LD-Orn-K(PEG3-(γ-Glu)-CO-(CH2)12-CO2H)AQ-Aib-K(PEG3-(γ-Glu)-CO-(CH2)12-CO2H)FI-(D-Glu)-αMeY-LIEGGPSSGAPPPS-NH2

Target: human glucagon receptor (human, UniProt P47871 26-477)
Experiment: cell-based or functional assay

Sequence of human glucagon receptor (P47871 26-477): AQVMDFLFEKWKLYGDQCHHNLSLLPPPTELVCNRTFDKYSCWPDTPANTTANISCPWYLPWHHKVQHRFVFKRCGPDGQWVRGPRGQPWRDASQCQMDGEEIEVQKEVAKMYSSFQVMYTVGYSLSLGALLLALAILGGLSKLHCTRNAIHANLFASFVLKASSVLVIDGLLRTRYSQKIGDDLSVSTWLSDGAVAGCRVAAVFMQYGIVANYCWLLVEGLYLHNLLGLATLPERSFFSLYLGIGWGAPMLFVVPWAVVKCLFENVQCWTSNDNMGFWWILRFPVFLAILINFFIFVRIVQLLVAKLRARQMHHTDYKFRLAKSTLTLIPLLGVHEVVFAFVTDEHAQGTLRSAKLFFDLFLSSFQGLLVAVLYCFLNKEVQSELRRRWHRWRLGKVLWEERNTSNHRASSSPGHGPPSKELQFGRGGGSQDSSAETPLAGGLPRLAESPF

Binder	cAMP EC50 (1.0% HSA)
B1	> 9950 nM
Y[Aib]EGT[αMePhe(2-F)]TSDV[Aib]I[αMeL]LD[Orn]K([AEEA-AEEA-C14 diacid])AQ[Aib]EFI[dE][αMeY]LIK([AEEA-AEEA-C14 diacid])GGPSSGAPPPS-NH2 [Example 389]	> 9950 nM
Y[Aib]EGT[αMePhe(2-F)]TSDV[Aib]I[αMeL]LD[Orn]K([AEEA-AEEA-Decanoyl(10-(4-HOOC-PhO))])AQ[Aib]EFI[dE][αMeY]LIK([AEEA-AEEA-Decanoyl(10-(4-HOOC-PhO))])GGPSSGAPPPS-NH2 [Example 397]	> 9950 nM
B2	> 9950 nM
B3	> 9950 nM
B4	> 9950 nM

Target: human GLP-1 receptor (human, UniProt P43220 24-463)
Experiment: cell-based or functional assay

Binder	cAMP EC50 (1.0% HSA)	cAMP Emax (1.0% HSA)
B1	12.4 nM	97.2%
Y[Aib]EGT[αMePhe(2-F)]TSDV[Aib]I[αMeL]LD[Orn]K([AEEA-AEEA-C14 diacid])AQ[Aib]EFI[dE][αMeY]LIK([AEEA-AEEA-C14 diacid])GGPSSGAPPPS-NH2 [Example 389]	9.58 nM	–
Y[Aib]EGT[αMePhe(2-F)]TSDV[Aib]I[αMeL]LD[Orn]K([AEEA-AEEA-Decanoyl(10-(4-HOOC-PhO))])AQ[Aib]EFI[dE][αMeY]LIK([AEEA-AEEA-Decanoyl(10-(4-HOOC-PhO))])GGPSSGAPPPS-NH2 [Example 397]	7.17 nM	–
B2	43.6 nM	89.7%
B3	9.18 nM	–
B4	49.1 nM	–

Target: T1, human GIP receptor
Experiment: cell-based or functional assay

Binder	cAMP EC50 (1.0% HSA)	cAMP Emax (1.0% HSA)
B1	1.87 nM	95.4%
Y[Aib]EGT[αMePhe(2-F)]TSDV[Aib]I[αMeL]LD[Orn]K([AEEA-AEEA-C14 diacid])AQ[Aib]EFI[dE][αMeY]LIK([AEEA-AEEA-C14 diacid])GGPSSGAPPPS-NH2 [Example 389]	1.5 nM	82%
Y[Aib]EGT[αMePhe(2-F)]TSDV[Aib]I[αMeL]LD[Orn]K([AEEA-AEEA-Decanoyl(10-(4-HOOC-PhO))])AQ[Aib]EFI[dE][αMeY]LIK([AEEA-AEEA-Decanoyl(10-(4-HOOC-PhO))])GGPSSGAPPPS-NH2 [Example 397]	1.92 nM	84.5%
B2	16.2 nM	86.8%
B3	0.547 nM	66.7%
B4	1.74 nM	–

Target: human glucagon receptor (human) (UniProt P47871)
Experiment: cell-based or functional assay

Binder	cAMP EC50
B1	> 9950 nM
Y[Aib]EGT[αMePhe(2-F)]TSDV[Aib]I[αMeL]LD[Orn]K([AEEA-AEEA-C14 diacid])AQ[Aib]EFI[dE][αMeY]LIK([AEEA-AEEA-C14 diacid])GGPSSGAPPPS-NH2 [Example 389]	> 9950 nM
Y[Aib]EGT[αMePhe(2-F)]TSDV[Aib]I[αMeL]LD[Orn]K([AEEA-AEEA-Decanoyl(10-(4-HOOC-PhO))])AQ[Aib]EFI[dE][αMeY]LIK([AEEA-AEEA-Decanoyl(10-(4-HOOC-PhO))])GGPSSGAPPPS-NH2 [Example 397]	> 9950 nM
B2	> 9950 nM
B3	> 9950 nM
B4	> 9950 nM

Target: T2, human GIP receptor (human)
Experiment: cell-based or functional assay

Binder	cAMP EC50	cAMP Emax
B1	0.0114 nM	99.2%
Y[Aib]EGT[αMePhe(2-F)]TSDV[Aib]I[αMeL]LD[Orn]K([AEEA-AEEA-C14 diacid])AQ[Aib]EFI[dE][αMeY]LIK([AEEA-AEEA-C14 diacid])GGPSSGAPPPS-NH2 [Example 389]	0.0178 nM	94.6%
Y[Aib]EGT[αMePhe(2-F)]TSDV[Aib]I[αMeL]LD[Orn]K([AEEA-AEEA-Decanoyl(10-(4-HOOC-PhO))])AQ[Aib]EFI[dE][αMeY]LIK([AEEA-AEEA-Decanoyl(10-(4-HOOC-PhO))])GGPSSGAPPPS-NH2 [Example 397]	0.0293 nM	94.6%
B2	0.0186 nM	98.4%
B3	0.0115 nM	94.3%
B4	0.014 nM	101%

Target: hGLP-1R (Homo sapiens, UniProt P43220)
Experiment: cell-based or functional assay

Binder	cAMP EC50	cAMP Emax
B1	0.156 nM	100%
Y[Aib]EGT[αMePhe(2-F)]TSDV[Aib]I[αMeL]LD[Orn]K([AEEA-AEEA-C14 diacid])AQ[Aib]EFI[dE][αMeY]LIK([AEEA-AEEA-C14 diacid])GGPSSGAPPPS-NH2 [Example 389]	0.19 nM	92.4%
Y[Aib]EGT[αMePhe(2-F)]TSDV[Aib]I[αMeL]LD[Orn]K([AEEA-AEEA-Decanoyl(10-(4-HOOC-PhO))])AQ[Aib]EFI[dE][αMeY]LIK([AEEA-AEEA-Decanoyl(10-(4-HOOC-PhO))])GGPSSGAPPPS-NH2 [Example 397]	0.166 nM	95.8%
B2	0.259 nM	91.9%
B3	0.372 nM	96.8%
B4	0.632 nM	94.3%

Source: patent US20230265151A1, “GIP/GLP1 CO-AGONIST COMPOUNDS” (priority 2020, published 2023)
